Reference: article PMC7416112 (Structure(London, England:1993), 2020)

Experiments:
Assay in all cases: BLI
[1] = target: BG505 SOSIP.v4.1-2XStrep N332 N339Q (HIV-1 (BG505))
[2] = target: BG505 SOSIP.v4.1-2XStrep N332 N295Q (HIV-1 (BG505))
[3] = target: BG505 SOSIP.v4.1-2XStrep N332 N363Q (HIV-1 (BG505))
[4] = target: BG505 SOSIP.v4.1-2XStrep (N332) (HIV-1 (BG505))
[5] = target: BG505 SOSIP.v4.1-2XStrep N332 N392Q (HIV-1 (BG505))
[6] = target: BG505 SOSIP.v4.1-2XStrep N332 N386Q (HIV-1 (BG505))
[7] = target: BG505 SOSIP.v4.1-2XStrep T332 (HIV-1 subtype A, BG505, UniProt Q2N0S6, stabilised); conditions: both partners purified

Molecule: 2G12 Fab2
- Kd [1]: 7.35 nM
- Kd [2]: 11.4 nM
- Kd [3]: 3.99 nM
- Kd [4]: 4.25 nM
- Kd [5]: 16.8 nM
- Kd [6]: 3.15 nM

B1: 2G12 Fab2 (Fab, V domains shown)
VH: EVQLVESGGGLVKAGGSLILSCGVSNFRISAHTMNWVRRVPGGGLEWVASISTSSTYRDYADAVKGRFTVSRDDLEDFVYLQMHKMRVEDTAIYYCARKGSDRLSDNDPFDAWGPGTVVTVSP
VL: DVVMTQSPSTLSASVGDTITITCRASQSIETWLAWYQQKPGKAPKLLIYKASTLKTGVPSRFSGSGSGTEFTLTISGLQFDDFATYHCQHYAGYSATFGQGTRVEIK
notes: also called 2G12 bnAb; copies: 2 + 2
- Kd [7]: 22.9 nM
- koff [7]: 0.00558 s⁻¹
- kon [7]: 244000 M⁻¹ s⁻¹
